Assay results published in article PMC9753469 (2022).

B1: MBP-KRAB (ZNF93 KRAB, wild type) (domain or fragment)
chain: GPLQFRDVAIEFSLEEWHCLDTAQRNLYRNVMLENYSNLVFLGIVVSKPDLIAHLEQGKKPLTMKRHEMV
B2: MBP-KRAB (ZNF93 KRAB E35R) (domain or fragment)
chain: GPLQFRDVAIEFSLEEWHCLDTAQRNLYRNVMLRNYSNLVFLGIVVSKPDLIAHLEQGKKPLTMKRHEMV

What was measured:
[1] = target: T1, KAP1 RBCC R311E, SPR analyte (human (by the printed UniProt entry), UniProt Q13263 1-835, R311E); test: SPR; minor phase
[2] = target: T1, KAP1 RBCC R311E, SPR analyte; test: SPR; major phase
[3] = target: T1, KAP1 RBCC R311E, SPR analyte; test: SPR; major phase; remark: listed apart in the source
[4] = target: T1, KAP1 RBCC R311E, SPR analyte; test: SPR
[5] = target: B2; test: SPR; minor phase
[6] = target: B1; test: SPR; minor phase
[7] = target: B2; test: SPR; major phase
[8] = target: B1; test: SPR; major phase
[9] = target: B1; test: SPR; minor phase; remark: listed apart in the source

Kd [1]	Kd [2]	koff [3]	Kd [4]	Kd [5]	Kd [6]	koff [7]	koff [8]	koff [9]	Binder
2 µM	0.029 µM	0.00083 s⁻¹	0.029 µM						B1
35.6 µM		0.0037 s⁻¹							B2
				47 µM	19 µM	0.008 s⁻¹	0.000232 s⁻¹	0.0061 s⁻¹	KAP1 RBCC (wild type), SPR analyte (domain or fragment) SPAGGGAEALELLEHCGVCRERLRPEREPRLLPCLHSACSACLGPAAPAAANSSGDGGAAGDGTVVDCPVCKQQCFSKDIVENYFMRDSGSKAATDAQDANQCCTSCEDNAPATSYCVECSEPLCETCVEAHQRVKYTKDHTVRSTGPAKSRDGERTVYCNVHKHEPLVLFCESCDTLTCRDCQLNAHKDHQYQFLEDAVRNQRKLLASLVKRLGDKHATLQKSTKEVRSSIRQVSDVQKRVQVDVKMAILQIMKELNKRGRVLVNDAQKVTEGQQERLERQHWTMTKIQKHQEHILRFASWALESDNNTALLLSKKLIYFQLHRALKMIVDPVEPHGEMKFQWDLNAWTKSAEAFGKIVAERP
